Source: the nanobody polyreactivity screen of Harvey et al. (2022)

Assay: yeast display, Sf9 membrane polyspecificity reagent, FACS + sequencing; frameworks hold sequencing errors
Outline: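 A synthetic nanobody library was expressed on Saccharomyces cerevisiae BJ5465 by galactose induction for 36–48 hours. The library was stained for 1 hour at 4 °C with 10% biotinylated, detergent-solubilized Sf9 membrane reagent and enriched with streptavidin microbeads before FACS. Low and high (top ~1%) gates were set on anti-HA fluorescence for expression and streptavidin fluorescence for reagent binding, and each polyreactivity label reflects the gate of origin.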

Sequence | polyreactivity (PSR sort gate)
QVQLVESGGGLVQAGGSLRLSCAASGRTFVPYTMGWYRQAPGKERELVAAISRSGARTYYADSVKGRFTISRDNAKNTVYLQMNSLKPEDTAVYYCVVIARYGYDYWGQGTQVTVSS | high polyreactivity
QVQLVESGGGLVQAGGSLRLSCAASGLTFVYYAMGWFRQAPGKERELVAAISRGGTTYYADSVKGRFTISRDNAKNTVYLQMNSLKPEETAVYYCNAARYGFGSAYDYWGQGTQGTVSS | high polyreactivity
QVQLVESGGGLVQAGGSLRLSCAASGSTFGNYAMGWYRQAPGKERELVAAIRSRGGRTYYADSVKGRFTISRDYAKNTVYLQMNSLKPVDTAVYYCARDSRTGYYYWGQGTQVTVSS | high polyreactivity
QVQLVESGGGLVQAGGSLRLSCAASGRIFLSYTMGSYRQAPGKERELVAAISRGGRTYYADSVKGRFTISLDNAKNTVYLQMNSLKPEDTAVYYCAKKYGRYGSLRGRTIDDYWGQGTEVTVSS | low polyreactivity
QVQLVESGGGLVQAGGSLRLSCAASGSIFYQNAMGWYRQAPGKEREFVAAIRSSGSSTYYADSVKGRFTISRDNAKNTVYVQMNCLKPEDTAVYYCAADNPGGYRGKVDYWGQGTQVTVSS | high polyreactivity
QVQLVESGGGLVQAGGSLRLSCAASGSTFGHYAMGCYRQAPGKERDLVAAISWSGASTYYADSVKGRFTISRDNAKNTVYLQMNSLKPEDTAVYYCAAESYRQTYYVGDGYEDDYWGQGTQVTVSS | low polyreactivity
QVQLVESGGGLVQAGGSLRLSCAASGSIFIGYAMGWYRQAPGKERELVAAITSGGSTYADSVKGRFTISRDNAKNTVYLQMNSLKPEDTAVYYCAAPRTYYSELTSPYDYWGQGTQVTVSS | low polyreactivity
QVQLVESRGGLVQAGGSLPLSCAPSGRIFVRYAMGWYRQAPGKERELVAAISKSGGTTYYADSVKGRFTISRDNAKNTVYLQMNSLKPEDTAVYYCYALVRRRPGYIRYDYWGQGSQVTVSS | low polyreactivity
QVQLVESGGGLVQAGGSLRLSCAASGGTFSPYDMGWYRQAPGKERELVASITGSGGSTYYADSVKGRFTISRGNAKNTVYLQMNSLKPEDTAVYYCAAQGYWTYWPYLLRLYDYWGQGTQVTVSS | low polyreactivity
QVQLVESGGGLVQAGGSLRLSCAASGGTFDWNTMGWYRQAPGKERELVASITSGGRTNYADSVKGRFTISRDNAKNTVYLQMNSLKPEDTAVYYCAIYRRSAYPWQTWVGQKFDYWGQGTQVTVSS | low polyreactivity
QVQLVESGGGLVQVGGSLRLSCAASGSIFVENAMGWYRQAPGKERELVAAITSGGSTNYADSVKGRFTISRDNAKNTVYLQMNSLKPEDTAVYYCNADENYGYYTHFGYWGQGTQVTVSS | low polyreactivity
QVQLVESGGGLVQAGGRLRLSCTASGRPLYNYTMGWYRQAPGKERELVATINFSGGSTYYADSVKGRFTISRDNAKNTVYLQMNSLKQEDTAVYYCTARGYHYAYKGAYLGDDYWGQGTQVTVSS | low polyreactivity
QVQLVESGGGLVQAGVSLRLSCAASGSTLYGYAMGWYRQAPGKERELVAAINTGGSTNYADSVKGRFTISRDNSKNTVYLQMNSLKPEDTAVYYCAASYSLTFWDKDDYWGQGTQVTVSS | low polyreactivity
QVQLVESGGGLVQAGGSLRLSCAASGSNIYVYAMGWYRQAPGKERELVAAISSSSDSTYADSVKGRFTISRDNAKNTVYLQMNSLKPEDTAVYYCNKKNAVYFAYDYWGQGTQVTVSS | low polyreactivity
QVQLVESGGGLVQAGGSLRLSCAASGRTFGAYAMGWYRQAPGTERELVAAISSSGGSTYYADSVKGRFTISRDNAKNTVYLQMNSLKPEDTAVYYCAKGWHRGVGFGYWGQGTQVTVSS | high polyreactivity
QVQLVDSGGGLVQAGGSLRLSCAASGYIFYFNAMGWYRQAPGKEREMVAAISDRDDSTYYADSVKGRFTISRDNAKNTVYLQMNSLKPEDTAVYYCAADGYTYVDDPYDYWGQGTQVTVSS | low polyreactivity
QVQLVESGGGLVQAGGSLRLSCSASGRTLTRYTMGWYRKAPGKERELVAGITRSGGSTYYADSVNGRFTISRDNAKNTVYLKMNSLKPEDTAVYYCAVKQRDKFAGGRNDYWGQGTQVTVSS | high polyreactivity
